The data set concerns the molecule itself. The experiment in a line: crystal structure; hDAPK1 CD + ARD (2.0 Å), hDAPK2 CD + ARD (1.47 Å) and hDAPK3 CD (3.1 Å) crystallised by vapor diffusion; homodimers in the crystals.

B1: human death-associated protein kinase 3, catalytic domain (hDAPK3 CD, residues 1-274) (domain or fragment, UniProt O43293 1-274, looked up)
chain: MSTFRQEDVEDHYEMGEELGSGQFAIVRKCRQKGTGKEYAAKFIKKRRLSSSRRGVSREEIEREVNILREIRHPNIITLHDIFENKTDVVLILELVSGGELFDFLAEKESLTEDEATQFLKQILDGVHYLHSKRIAHFDLKPENIMLLDKNVPNPRIKLIDFGIAHKIEAGNEFKNIFGTPEFVAPEIVNYEPLGLEADMWSIGVITYILLSGASPFLGETKQETLTNISAVNYDFDEEYFSNTSELAKDFIRRLLVKDPKRRMTIAQSLEHSW
notes: death-associated protein kinase 3, human, CD, residues 1-274; Dimer in the crystal; also called hDAPK3 CD construct; source: E. coli Rosetta (DE3) pLysS, purified (glutathione Sepharose, TEV cleavage, SEC); not shown: GST, N-terminal, cleaved
Take B1: the binding result is “binds”.

B2: human death-associated protein kinase 1, catalytic domain and most of the autoregulatory domain (hDAPK1 CD + ARD, residues 1-312) (domain or fragment, UniProt P53355 1-312, looked up)
chain: MTVFRQENVDDYYDTGEELGSGQFAVVKKCREKSTGLQYAAKFIKKRRTKSSRRGVSREDIEREVSILKEIQHPNVITLHEVYENKTDVILILELVAGGELFDFLAEKESLTEEEATEFLKQILNGVYYLHSLQIAHFDLKPENIMLLDRNVPKPRIKIIDFGLAHKIDFGNEFKNIFGTPEFVAPEIVNYEPLGLEADMWSIGVITYILLSGASPFLGDTKQETLANVSAVNYEFEDEYFSNTSALAKDFIRRLLVKDPKKRMTIQDSLQHPWIKPKDTQQALSRKASAVNMEKFKKFAARKKWKQSVRLI
notes: death-associated protein kinase 1, human, CD and most of the ARD, residues 1-312; Dimer in the crystal; also called hDAPK1 CD + ARD construct (1-312); source: E. coli BL21(DE3), purified (Ni-NTA, TEV cleavage, SEC); not shown: His6, N-terminal, cleaved
Take B2: the binding result was “binds”.
